Measurements: article PMC3630358

Biological target: TraF/VirB10 C-terminal domain starting at N161 (elastase-cleaved, C-terminal Strep-tag) (Escherichia coli (plasmid pKM101)) (UniProt Q46705)
Assay: cryo-EM structure

“TraF/VirB10 C-terminal domain starting at N161 (elastase-cleaved, C-terminal Strep-tag) (from UniProt Q46705 161-386) (domain or fragment)” was tested, and the stoichiometry N was 14.
